Earlier results in article PMC4937678, “In Vivo Measurement and Characterization of a Novel Formulation of [^177Lu]-DOTA-Octreotate” (Asia Oceania Journal of Nuclear Medicine and Biology, 2016).
Like-named read-outs stand apart in the source and are kept apart here.

Source text: Table 4 Comparison of Published Radiation Dose Estimates for Different Formulations of [^177Lu]-DOTA-Octreotate ([3], [7]-[11]) | column: Dose (mGy/MBq)
[1] = 6 subjects, ref Kwekkeboom (2001) [3]
[2] = 10 subjects, value (range), ref Cremonesi (2006) [10]
[3] = 24 subjects, range, ref Sandstrom (2010) [8]

C[C@@H](O)[C@H](NC(=O)[C@@H]1CSSC[C@H](NC(=O)[C@@H](Cc2ccccc2)NC(=O)CN2CCN(CC(=O)[O-])CCN(CC(=O)[O-])CCN(CC(=O)[O-])CC2)C(=O)N[C@@H](Cc2ccc(O)cc2)C(=O)N[C@H](Cc2c[nH]c3ccccc23)C(=O)N[C@@H](CCCCN)C(=O)N[C@@H]([C@@H](C)O)C(=O)N1)C(=O)O.[177Lu+3] [[^177Lu]-DOTA-Octreotate]
Dose, Liver [1]: 0.21 ± 0.08 mGy/MBq | Dose, Red Marrow [1]: 0.07 ± 0.01 mGy/MBq | Dose, Spleen [1]: 2.15 ± 0.39 mGy/MBq | Dose, Liver [2]: 0.18 (0.05 – 0.34) mGy/MBq | Dose, Red Marrow [2]: 0.04 (0.02 – 0.06) mGy/MBq | Dose, Spleen [2]: 0.64 (0.29-2.91) mGy/MBq | Dose, Red Marrow (14 subjects, ref Forrer (2009) [9]): 0.02 ± 0.03 mGy/MBq | Dose, Kidney (range) [3]: (0.32 – 1.67) mGy/MBq | Dose, Liver (range) [3]: (0.13 – 1.10) mGy/MBq | Dose, Spleen (range) [3]: 0.21 – 1.86 mGy/MBq | Dose, Red Marrow (27 subjects, ref Wehrmann (2007) [11]): 0.04 ± 0.02 mGy/MBq | Dose, Spleen (73 subjects, ref Wehrmann (2007) [11]): 1.2 ± 0.5 mGy/MBq | Dose, Kidney (89 subjects, ref Wehrmann (2007) [11]): 0.9 ± 0.3 mGy/MBq | Dose, Kidney (no renal protection, 6 subjects, ref Kwekkeboom (2001) [3]): 1.65 mGy/MBq | Dose, Kidney (with renal protection, 5 subjects, ref Kwekkeboom (2001) [3]): 0.88 mGy/MBq
